Bridges are numbered along the chain shown (N, C = ends).
What was measured:
[1] = biological target: human serum-derived γ-globulin (Sigma-Aldrich); assay: DBC on peptide-immobilized column, 0 NaOH wash cycles (reference)
[2] = biological target: human serum-derived γ-globulin (Sigma-Aldrich); assay: DBC on peptide-immobilized column after 1 wash cycle with 0.1 M NaOH
[3] = biological target: human serum-derived γ-globulin (Sigma-Aldrich); assay: DBC on peptide-immobilized column after 10 wash cycles with 0.1 M NaOH
[4] = biological target: human serum-derived γ-globulin (Sigma-Aldrich); assay: DBC on peptide-immobilized column after 5 wash cycles with 0.1 M NaOH
[5] = biological target: human serum-derived γ-globulin (Sigma-Aldrich); assay: DBC on peptide-immobilized column after 2 wash cycles with 0.1 M NaOH
[6] = biological target: human serum-derived γ-globulin (Sigma-Aldrich); assay: DBC on peptide-immobilized column, 0 NaOH wash cycles
[7] = biological target: human serum-derived γ-globulin (Sigma-Aldrich); assay: column chromatography, peptide immobilized on 1 mL NHS-activated column, 1 mg/mL human γ-globulin at 1 mL/min
human IgG = assay: SPR (BIAcore T200), human IgG immobilized on chip, peptide injected at 15.6-1000 nM

DBC 10% (% NaOH wash cycle 0) [1] [%] | DBC 10% [2] [mg/mL] | DBC 10% (% NaOH wash cycle 0) [2] [%] | DBC 10% [3] [mg/mL] | DBC 10% (% NaOH wash cycle 0) [3] [%] | DBC 10% [4] [mg/mL] | DBC 10% (% NaOH wash cycle 0) [4] [%] | DBC 10% [5] [mg/mL] | DBC 10% (% NaOH wash cycle 0) [5] [%] | DBC 10% [6] [mg/mL] | DBC (dynamic binding capacity, 10% breakthrough) [7] [mg/mL-column] | Kd (human IgG) [nM] | koff (human IgG) [s⁻¹] | kon (human IgG) [M⁻¹ s⁻¹] | Binder
100 | 12.4 | 91.9 | 6.1 | 45.2 | 8.9 | 65.9 | 11.5 | 85.2 | 13.5 | – | – | – | – | {NH2‑PEG4}-GPDCAYHRGELVWCTFH-NH2 (disulfide 4-14)
100 | 9.5 | 101 | 8.9 | 94.7 | 9.2 | 97.9 | 9.4 | 100 | 9.4 | 9.4 | 340 | 0.22 | 650000 | GPDCAYHRGELVWCTFH (N-terminal H2N-PEG4; C-terminal amide; position 4 built as homoserine (Hse), its side-chain hydroxyl chlorinated and reacted with Cys 14, so that the two outer cysteine positions (4 and 14) are joined by the linker of drawing CHEM-US-00008 instead of a disulfide)
– | – | – | – | – | – | – | – | – | – | 2.3 | 4900 | 0.005 | – | {NH2‑PEG4}-GPDCAYHRGELVWCTFH-NH2 (linker 4-14 via 1,3‑dichloro‑2‑propanone)

Source: patent publication US20210380637A1
